{
  "source": "the supplement of paper PMC7125110",
  "parents": {"B1": {"name": "glmS ribozyme (parent)", "chain": "AUAAAAGCGCCAGAACUACAGAAAUGUAGUUGACGAGGAGGAGGUUUAUCGAAUUUUCGGCGGAUGCCUCCAAA"}},
  "note": "± gives the standard error. Fewer inactive variants are shown than the library holds.",
  "data": [
    {"variants_of": "B1", "assay": "self-cleavage kobs at 2500 uM GlcN6P; higher = faster cleavage; RNA array", "conditions": "with glucosamine-6-phosphate", "summary_of_the_method": "(§1)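 Barcoded ribozyme variants, transcribed in situ by E. coli RNA polymerase on sequenced MiSeq chips, were followed via a hybridised Cy3 probe at 37 °C. Glucosamine-6-phosphate ranged from 40 μM to 10 mM in HEPES/KCl/Mg(OAc)2 buffer. kobs came from decay fits to per-tile medians, and kcat and KM from weighted Michaelis–Menten fits.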", "units": {"self-cleavage kobs at 2500 uM GlcN6P": "s⁻¹"}, "values": [
      {"variant": "AUAAAGGCGCCAGAACUACAGAAAUGUAGUUGACGCGGAGGAGGUUUAUCGAAGUUUCGGCUGAUGCCUCCAAA", "note": "[A6G A36C U54G G62U]", "self-cleavage kobs at 2500 uM GlcN6P": "< 1e-05"},
      {"variant": "AUAAAAGUUCCAGAUCUACAGAAAUGUAGUUGACGAGGAGGAGUUUUAUCGAAUUUUCGGCGGAUGCCUCCAAA", "note": "[C8U G9U A15U G44U]", "self-cleavage kobs at 2500 uM GlcN6P": "< 1e-05"},
      {"variant": "AUAAAAGCCCCACAACUACAGAAAUGUAGUUGAAGAGGAGGAGGUUUAUCGAAUUUUCGGCCGGUGCCUCCAAA", "note": "[G9C G13C C34A G62C A64G]", "self-cleavage kobs at 2500 uM GlcN6P": "< 1e-05"},
      {"variant": "AUAAAAGCGCCAGAACUACAGAAAUGUAGUUGACGAGGAGGUGGUUUAUCGAAUUAUCGGCGGAUGCCGCCAAA", "note": "[A42U U56A U69G]", "self-cleavage kobs at 2500 uM GlcN6P": "0.00299 ± 0.00059"},
      {"variant": "AUAAAAGUGCCAGAAGUACAGAAAUGUACUUGACGAGGAGGAGGUUUAUCGAAUUUUCGGCGGAUGCCUCCAAA", "note": "[C8U C16G G29C]", "self-cleavage kobs at 2500 uM GlcN6P": "< 1e-05"},
      {"variant": "AUAAAAGCGCCAGAACUACAGAAAUGUAGUUGACGAGGAGGAGGUUUAGCGAAUUUUCGGUGGAUGGCUCCAAA", "note": "[U49G C61U C67G]", "self-cleavage kobs at 2500 uM GlcN6P": "< 1e-05"},
      {"variant": "AUAAAAGCGCCGGAGCUACAGAAAUGUAGUUGACGAGGAGGAGAUUUAUCGAAAUUUCGGUGGAUGCCUCCAAA", "note": "[A12G A15G G44A U54A C61U]", "self-cleavage kobs at 2500 uM GlcN6P": "< 1e-05"},
      {"variant": "AUAAAAGCGCCAGAACUACAGAAAUGUAGUUGACGAGGAGGAGGUUUACCGAAUUUGCGGCGGAUGCCUCCAAA", "note": "[U49C U57G]", "self-cleavage kobs at 2500 uM GlcN6P": "< 1e-05"},
      {"variant": "AUAAAAGCGCCAGAACUACAGAAAUGUAGUUGACGAGGAUAAGGUUUAUCGAAUUUUCGGCGGAUGACUUCAAA", "note": "[G40U G41A C67A C70U]", "self-cleavage kobs at 2500 uM GlcN6P": "0.000143 ± 3.7e-05"},
      {"variant": "AUAAACGCGCCAGAACUACAGAAAUGUAGUUGACGAGGAGGAGGUUUGUCGGAUUUUCGGCGGAUGCCUCCAAA", "note": "[A6C A48G A52G]", "self-cleavage kobs at 2500 uM GlcN6P": "< 1e-05"},
      {"variant": "AUAAAAGCGCCAGCACUACAGAAAUGUAGUUGACGAGGAGGAGGUUUAUCGAAUUCUCGGCGGAUGUCUCCAAA", "note": "[A14C U56C C67U]", "self-cleavage kobs at 2500 uM GlcN6P": "< 1e-05"},
      {"variant": "AUAAAAGCGCCAGAAUUACAGAAAUGUACUUGACGAGGAGGAGGUUUAUCGAAUAUUCGGCGGAUGCCUCCAAA", "note": "[C16U G29C U55A]", "self-cleavage kobs at 2500 uM GlcN6P": "0.00365 ± 0.00064"},
      {"variant": "AUAAAAGCGCCAGAACUACAGAAAUGUAGUUAAGGAGGAGGAGGUUUAUCGAAUUUUCGGCGGAUGCCUCUAAA", "note": "[G32A C34G C71U]", "self-cleavage kobs at 2500 uM GlcN6P": "< 1e-05"},
      {"variant": "AUAAAAGGGCCAGUACUACAGAAAUGUAGUUGACGAGGGGGAGGUUUAUCGAAUUUUCGGCGGAUGCCUCCAAA", "note": "[C8G A14U A39G]", "self-cleavage kobs at 2500 uM GlcN6P": "< 1e-05"},
      {"variant": "AUAAAAGCGCCACAACUACAGAAAUGUAGUUGAAGAGGAGGAGGUUUAUCGAAUUUUCGGCGGAUGUCUCCAAA", "note": "[G13C C34A C67U]", "self-cleavage kobs at 2500 uM GlcN6P": "< 1e-05"},
      {"variant": "AUAAAAGCGACAGAACUACAGAAAUGUAAUUGGCGAGGAGGAGGUUUUUCGAAUUUUCGGCGGAUGCCUCCAAA", "note": "[C10A G29A A33G A48U]", "self-cleavage kobs at 2500 uM GlcN6P": "< 1e-05"},
      {"variant": "AUAAAAGCGCCAUAACUACAGAAAUGUAGUUGACGGGCAGGAGGUUUAUAGAAUUUUCGGCGGAUGCCUCCAAA", "note": "[G13U A36G G38C C50A]", "self-cleavage kobs at 2500 uM GlcN6P": "< 1e-05"},
      {"variant": "AUAAAAGCGCCAGAAGUACAGAAAUGUAGGUGACGAGGUGGAGGUUUAUCGAAUUUUCGGCGGAUGCCUCCAAA", "note": "[C16G U30G A39U]", "self-cleavage kobs at 2500 uM GlcN6P": "4.31e-05 ± 2e-05"},
      {"variant": "AUAAAAGCGCCGGAACUACAGAAAUGUAGUUUAUGAGGAGGAGGUUUAUCGAUUUUUCGGCGGAUGCCUCCAAA", "note": "[A12G G32U C34U A53U]", "self-cleavage kobs at 2500 uM GlcN6P": "< 1e-05"},
      {"variant": "AUAAAAGCGCCAGAACUACAGAAAUGUAGUUGACGGGGAGAAGGUUUAUCGAAUUUUCGGCGGAUGUCUCCAAA", "note": "[A36G G41A C67U]", "self-cleavage kobs at 2500 uM GlcN6P": "< 1e-05"},
      {"variant": "AUAAAAGCGCCGGAAUUACAGAAAUGUAGUUGACGAGGAGGAGGUUUAUCGAAUUUUCGGCGGAUGCCGCCAAA", "note": "[A12G C16U U69G]", "self-cleavage kobs at 2500 uM GlcN6P": "6.28e-05 ± 2.8e-05"},
      {"variant": "AUAAAAGCGGCAGUACUACAGAAAUGUACUUGACGAGGAGGAGGUUUAACGGAUUUUCGGCGGAUGGCUCCAAA", "note": "[C10G A14U G29C U49A A52G C67G]", "self-cleavage kobs at 2500 uM GlcN6P": "7.89e-05 ± 2.3e-05"},
      {"variant": "AUAAAACCGCCAGAACUACAGAAAUGUAGUUGACGAGGAGGAGGUAUAUCGCAUUUUCGGCGGAUGCCUCCAAA", "note": "[G7C U46A A52C]", "self-cleavage kobs at 2500 uM GlcN6P": "< 1e-05"},
      {"variant": "AUAAAAGCGCCAGAACUACAGAAAUGUAGCUGACGAGGAGGAGGUUUAUCGAAUCGUCGGCGGAUGCCCCCAAA", "note": "[U30C U55C U56G U69C]", "self-cleavage kobs at 2500 uM GlcN6P": "< 1e-05"},
      {"variant": "AUAAAAGCGCCAGAGCUACAGAAAUGUAGUUGACGAGGAGGAGUUUUAUUGAAUUUUCGGCGGUUGCCUCCAAA", "note": "[A15G G44U C50U A64U]", "self-cleavage kobs at 2500 uM GlcN6P": "< 1e-05"},
      {"variant": "AUAAAAGCGCCAGAACUACAGAAAUGUAGUUGACGAGGAGGAGGUUUAUCGAGUUUUCGGCGUAUGCCUCAAAA", "note": "[A53G G63U C71A]", "self-cleavage kobs at 2500 uM GlcN6P": "< 1e-05"},
      {"variant": "AUAAAAGCGCCAGUACUACAGAAAUGUAGUUGACGAGGAGGAGGGUUAUCGAAUUUUCGUCGGAUGCCUCCAAA", "note": "[A14U U45G G60U]", "self-cleavage kobs at 2500 uM GlcN6P": "< 1e-05"},
      {"variant": "AUAAAAGAGCCAGAACUACAGAAAUGUAGUUGACGAGGAGAAGUUUUAUCGAAUUUUCGGCGGAUGCCUCCAAA", "note": "[C8A G41A G44U]", "self-cleavage kobs at 2500 uM GlcN6P": "< 1e-05"},
      {"variant": "AUAAAAGCAUCAGAACUACAGAAAUGUAGUCGACGAGGAGGAGAUUUAUCGAAUUUUCGGCGGAUGCCUCCAAA", "note": "[G9A C10U U31C G44A]", "self-cleavage kobs at 2500 uM GlcN6P": "< 1e-05"},
      {"variant": "AUAAAAGAGCCAGAACUACAGAAAUGUAGUUGACGAGGAGGAGGUUUAUCGAAUUUUCCGCGGAUGGCUCCAAA", "note": "[C8A G59C C67G]", "self-cleavage kobs at 2500 uM GlcN6P": "< 1e-05"},
      {"variant": "AUAAAAGCGCCAGAACUACAGAAAUGUACUAGACGAGGAGGAGGUUUAUCGAAUUUUCGGCGGAUGCCUCCAAA", "note": "[G29C U31A]", "self-cleavage kobs at 2500 uM GlcN6P": "0.000502 ± 0.0001"},
      {"variant": "AUAAAAGCGCCAGAACUACAGAAAUGUAGUUGACGAGGACGAGGUUUAUCGGAUGUUCGGCGGAUGCCUCCAAA", "note": "[G40C A52G U55G]", "self-cleavage kobs at 2500 uM GlcN6P": "4.2e-05 ± 1.1e-05"},
      {"variant": "AUAAAAGCGCCAGACCUACAGAAAUGUAGACGACGAGGAGGAGGUUUUUCGAAUUUUCGGCGGAUGCCUCCAAA", "note": "[A15C U30A U31C A48U]", "self-cleavage kobs at 2500 uM GlcN6P": "7.36e-05 ± 3e-05"}
    ]},
    {"variants_of": "B1", "assay": "self-cleavage kobs at 10000 uM GlcN6P; higher = faster cleavage; RNA array", "conditions": "with glucosamine-6-phosphate", "summary_of_the_method": "as §1", "units": {"self-cleavage kobs at 10000 uM GlcN6P": "s⁻¹"}, "values": [
      {"variant": "AUAAAAGCGCCAGAACUACAGAAAUGUAGUUGACGAGGAGGAGGUUUACCGAAUUUGCGGCGGAUGCCUCCAAA", "note": "[U49C U57G]", "self-cleavage kobs at 10000 uM GlcN6P": "< 1e-05"},
      {"variant": "AUAAAAGGGCCAGUACUACAGAAAUGUAGUUGACGAGGGGGAGGUUUAUCGAAUUUUCGGCGGAUGCCUCCAAA", "note": "[C8G A14U A39G]", "self-cleavage kobs at 10000 uM GlcN6P": "< 1e-05"},
      {"variant": "AUAAAAGCGCCAGAAGUACAGAAAUGUAGGUGACGAGGUGGAGGUUUAUCGAAUUUUCGGCGGAUGCCUCCAAA", "note": "[C16G U30G A39U]", "self-cleavage kobs at 10000 uM GlcN6P": "0.000103 ± 2.8e-05"},
      {"variant": "AUAAAAGCGCCAGAACUACAGAAAUGUACUAGACGAGGAGGAGGUUUAUCGAAUUUUCGGCGGAUGCCUCCAAA", "note": "[G29C U31A]", "self-cleavage kobs at 10000 uM GlcN6P": "0.000731 ± 0.00017"}
    ]}
  ]
}
